Source: IntAct's records for PubMed 21300063

B1: Alsin (Homo sapiens), Q96Q42 (parent)
chain: MDSKKRSSTEAEGSKERGLVHIWQAGSFPITPERLPGWGGKTVLQAALGVKHGVLLTEDGEVYSFGTLPWRSGPVEICPSSPILENALVGQYVITVATGSFHSGAVTDNGVAYMWGENSAGQCAVANQQYVPEPNPVSIADSEASPLLAVRILQLACGEEHTLALSISREIWAWGTGCQLGLITTAFPVTKPQKVEHLAGRVVLQVACGAFHSLALVQCLPSQDLKPVPERCNQCSQLLITMTDKEDHVIISDSHCCPLGVTLTESQAENHASTALSPSTETLDRQEEVFENTLVANDQSVATELNAVSAQITSSDAMSSQQNVMGTTEISSARNIPSYPDTQAVNEYLRKLSDHSVREDSEHGEKPVPSQPLLEEAIPNLHSPPTTSTSALNSLVVSCASAVGVRVAATYEAGALSLKKVMNFYSTTPCETGAQAGSSAIGPEGLKDSREEQVKQESMQGKKSSSLVDIREEETEGGSRRLSLPGLLSQVSPRLLRKAARVKTRTVVLTPTYSGEADALLPSLRTEVWTWGKGKEGQLGHGDVLPRLQPLCVKCLDGKEVIHLEAGGYHSLALTAKSQVYSWGSNTFGQLGHSDFPTTVPRLAKISSENGVWSIAAGRDYSLFLVDTEDFQPGLYYSGRQDPTEGDNLPENHSGSKTPVLLSCSKLGYISRVTAGKDSYLALVDKNIMGYIASLHELATTERRFYSKLSDIKSQILRPLLSLENLGTTTTVQLLQEVASRFSKLCYLIGQHGASLSSFLHGVKEARSLVILKHSSLFLDSYTEYCTSITNFLVMGGFQLLAKPAIDFLNKNQELLQDLSEVNDENTQLMEILNTLFFLPIRRLHNYAKVLLKLATCFEVASPEYQKLQDSSSCYECLALHLGRKRKEAEYTLGFWKTFPGKMTDSLRKPERRLLCESSNRALSLQHAGRFSVNWFILFNDALVHAQFSTHHVFPLATLWAEPLSEEAGGVNGLKITTPEEQFTLISSTPQEKTKWLRAISQAVDQALRGMSDLPPYGSGSSVQRQEPPISRSAKYTFYKDPRLKDATYDGRWLSGKPHGRGVLKWPDGKMYSGMFRNGLEDGYGEYRIPNKAMNKEDHYVGHWKEGKMCGQGVYSYASGEVFEGCFQDNMRHGHGLLRSGKLTSSSPSMFIGQWVMDKKAGYGVFDDITRGEKYMGMWQDDVCQGNGVVVTQFGLYYEGNFHLNKMMGNGVLLSEDDTIYEGEFSDDWTLSGKGTLTMPNGDYIEGYFSGEWGSGIKITGTYFKPSLYESDKDRPKVFRKLGNLAVPADEKWKAVFDECWRQLGCEGPGQGEVWKAWDNIAVALTTSRRQHRDSPEILSRSQTQTLESLEFIPQHVGAFSVEKYDDIRKYLIKACDTPLHPLGRLVETLVAVYRMTYVGVGANRRLLQEAVKEIKSYLKRIFQLVRFLFPELPEEGSTIPLSAPLPTERKSFCTGKSDSRSESPEPGYVVTSSGLLLPVLLPRLYPPLFMLYALDNDREEDIYWECVLRLNKQPDIALLGFLGVQRKFWPATLSILGESKKVLPTTKDACFASAVECLQQISTTFTPSDKLKVIQQTFEEISQSVLASLHEDFLWSMDDLFPVFLYVVLRARIRNLGSEVHLIEDLMDPYLQHGEQGIMFTTLKACYYQIQREKLN

Variants of: B1
Conditions: with rab5a_human RAB5A

Variant | effect of a mutation on the interaction
G540E | increasing interaction

Variants of: B1
Conditions: with eea1_human EEA1, Q15075
Sequence of eea1_human EEA1, Q15075 (Q15075 whole entry): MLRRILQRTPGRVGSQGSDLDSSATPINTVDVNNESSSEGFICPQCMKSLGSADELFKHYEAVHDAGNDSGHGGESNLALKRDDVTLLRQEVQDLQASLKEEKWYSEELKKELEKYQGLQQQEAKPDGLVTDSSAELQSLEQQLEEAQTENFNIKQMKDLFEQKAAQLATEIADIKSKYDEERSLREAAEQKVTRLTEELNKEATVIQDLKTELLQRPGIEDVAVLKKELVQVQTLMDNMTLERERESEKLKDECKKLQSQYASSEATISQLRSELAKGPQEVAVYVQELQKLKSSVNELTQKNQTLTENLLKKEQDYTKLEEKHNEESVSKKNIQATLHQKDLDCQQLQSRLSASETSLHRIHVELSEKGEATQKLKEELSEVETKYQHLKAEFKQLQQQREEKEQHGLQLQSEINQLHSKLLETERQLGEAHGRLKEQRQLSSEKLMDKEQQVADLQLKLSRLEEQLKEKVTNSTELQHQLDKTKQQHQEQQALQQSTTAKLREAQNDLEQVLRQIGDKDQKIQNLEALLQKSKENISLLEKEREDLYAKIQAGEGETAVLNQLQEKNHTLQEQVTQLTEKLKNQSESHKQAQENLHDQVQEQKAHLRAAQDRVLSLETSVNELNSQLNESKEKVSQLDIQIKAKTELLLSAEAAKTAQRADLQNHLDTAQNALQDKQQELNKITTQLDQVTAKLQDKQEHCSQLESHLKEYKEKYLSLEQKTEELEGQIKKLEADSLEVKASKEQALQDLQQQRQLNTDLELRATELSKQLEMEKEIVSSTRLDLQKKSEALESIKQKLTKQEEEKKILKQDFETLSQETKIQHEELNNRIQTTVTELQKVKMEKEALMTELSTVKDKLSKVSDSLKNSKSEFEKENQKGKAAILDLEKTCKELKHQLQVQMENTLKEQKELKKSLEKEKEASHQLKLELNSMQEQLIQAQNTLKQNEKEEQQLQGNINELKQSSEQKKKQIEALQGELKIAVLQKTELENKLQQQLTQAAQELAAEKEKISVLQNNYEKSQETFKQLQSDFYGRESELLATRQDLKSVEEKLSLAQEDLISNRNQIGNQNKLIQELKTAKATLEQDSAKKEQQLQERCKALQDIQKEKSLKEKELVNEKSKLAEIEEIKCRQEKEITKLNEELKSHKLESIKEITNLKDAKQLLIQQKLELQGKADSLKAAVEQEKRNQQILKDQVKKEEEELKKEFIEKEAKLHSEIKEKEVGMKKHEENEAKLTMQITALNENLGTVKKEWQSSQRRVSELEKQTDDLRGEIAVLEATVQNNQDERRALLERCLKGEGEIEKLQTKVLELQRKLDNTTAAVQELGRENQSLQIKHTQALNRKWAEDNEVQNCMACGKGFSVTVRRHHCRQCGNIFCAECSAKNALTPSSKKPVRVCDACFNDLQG

Variant | effect of a mutation on the interaction
G540E | disrupting interaction

Variants of: B1
Conditions: with eea1_human EEA1, Q15075
Remark: another data set of the same source

Variant | effect of a mutation on the interaction
P1603A | disrupting interaction

Variants of: B1
Conditions: with rab5a_human RAB5A
Remark: another data set of the same source

Variant | effect of a mutation on the interaction
C157Y | increasing interaction

Variants of: B1
Conditions: with eea1_human EEA1, Q15075
Remark: another data set of the same source

Variant | effect of a mutation on the interaction
C157Y | disrupting interaction
